Assay results as given in patent US20220403048A1, “BINDING MOLECULES TO ARGINASE II [ARG2]” (Cancer Research Technology Limited, priority 2019, published 2022).
Each block holds one molecule with its values, some of them ahead of it.

What was measured:
ARG2 = biological target: T1, ARG2 (Homo sapiens, UniProt P78540); assay: T cell proliferation assay (BrdU, 72 hours) with exogenous ARG2; type: cell-based; conditions: In Absence of rhARG2
T1 sequence (P78540 23-354): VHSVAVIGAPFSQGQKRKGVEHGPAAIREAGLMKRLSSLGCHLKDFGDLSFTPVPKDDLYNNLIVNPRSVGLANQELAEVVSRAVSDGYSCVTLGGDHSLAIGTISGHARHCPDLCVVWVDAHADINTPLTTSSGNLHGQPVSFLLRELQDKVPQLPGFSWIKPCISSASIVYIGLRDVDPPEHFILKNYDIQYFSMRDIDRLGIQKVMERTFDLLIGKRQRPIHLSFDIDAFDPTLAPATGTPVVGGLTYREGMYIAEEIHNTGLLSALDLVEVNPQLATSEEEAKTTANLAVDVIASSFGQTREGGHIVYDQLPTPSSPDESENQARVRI
Experimental: This assay served to provide in vitro evidence of functional efficacy for each antibody.
Briefly, Leukocyte cones (NHS Blood and Transplant, Watford, UK) underwent Ficoll Plaque (GE, Sweden; Cat: 17-1440-02) gradient separation, PBMC's were extracted and pan T cell population isolated by negative selection using the Human T Cell Enrichment Kit (Stemcell Technologies, France; Cat: 19051) according to the manufacturer's instructions.
40000 cells/well were seeded in complete growth media (RMPI 1640, 5% Human Serum Albumin) into a 96 well clear TC treated microplate (Greiner-Bio One, Germany; Cat: 655180). T Cells were activated by the addition of ImmunoCult CD3/CD28 (Stemcell Technologies, France; Cat: 10971) at a dilution of 1:40 directly into wells and the plate incubated 37° C., 5% CO2 for 45 minutes.
To determine EC50's of test antibodies, a dilution series was created in sterile TBS at 8× the final assay concentration was added to the assay plate containing cells. Plate was incubated for 30 minutes at 37° C., 5% CO2.
ARG2 was added to relevant wells of the plate at a final concentration of 15 μg/ml. The equivalent volume of ARG2 vehicle and test antibody vehicle was added to relevant control wells. […]
Calculated data was expressed as % of control (Equation 3) and graphical plots were constructed using a four parameter fit and EC50's determined using model 205 in XLFit (IDBS, UK). […]

human ARG2 (trimer) = biological target: T2, human ARG2 (trimer) (Homo sapiens, UniProt P78540); assay: Mechanism of action study (effect on ARG2 Vmax and Km) in trimeric ARG2 enzyme inhibition assay; type: biochemical; conditions: for Km / Vmax: arginine 2.5-250 mM; for mode of action on ARG2: from effects on Vmax and Km
T2 construct: human ARG2 (aa23-354); His10 (C); made in house; host or cells: E. coli BL21 (DE3)
T2 sequence (P78540 23-354): T1 sequence (P78540 23-354)
Description: The mechanism of action of enzyme inhibitors can be broadly divided into competitive, uncompetitive and non-competitive and can be identified as such based on their effects on Km and Vmax.
A competitive inhibitor binds only to free enzyme, often at the active site, causing the affinity of the enzyme for the substrate to be reduced (increased Km) with no change to the maximum enzyme rate (Vmax).
The enzyme's affinity for the substrate is increased (Km is decreased) and the maximum enzyme rate (Vmax) is decreased.
A non-competitive inhibitor binds equally well to free enzyme and enzyme-substrate complex. The enzyme's affinity for the substrate (Km) is unchanged and the maximum enzyme rate (Vmax) is decreased. […]
The mechanism of action of the lead identification clone C0021158 IgG was investigated using the human ARG2 (trimer) enzyme inhibition assay as well as isothermal titration calorimetry.
The enzyme inhibition assay is described in section 1.5 and is a biochemical assay that measures production of urea, the product of L-arginine turnover by ARG2. To investigate the mechanism of action of C0021158 IgG, four point titrations of C0021158 IgG (1000, 100, 30 and 10 nM) were set up in the presence of 11 concentrations of arginine ([…]) and the reaction allowed to proceed for 80, 60, 45, 30, 15 or 5 minutes before the addition of the urea detection reagents O-Phthaldialdehyde and N-(1-Napthyl)ethylenediamine.
Raw data from each separate concentration of C0021158 IgG was plotted as a function of time for each concentration of arginine and fitted using a linear fit (GraphPad Prism) to derive initial velocities (slope values).
Initial velocity data was plotted against arginine concentration for each concentration of C0021158 IgG (FIG. 15A). Each trace was fitted to the Michaelis-Menten model (Y=Vmax*X/(Km+X)) in GraphPad Prism to derive maximum velocity (Vmax) and enzyme/substrate affinity (Km) values at each inhibitor concentration (Table 23).
In the case of C0021158 IgG inhibitor Vmax decreased in the presence of C0021158 IgG inhibitor, ruling out a competitive mode of action and pointing towards an uncompetitive or a non-competitive mode of action. To distinguish non-competitive from uncompetitive modes of action the effect on Km must be assessed. […] This uncharacteristic profile led to poor fitting of the data making it difficult to derive an accurate Km. The lack of accurate Km data means C0021158 IgG cannot be assigned as uncompetitive or non-competitive.

EC50 (ARG2): < 0.8 nM
Maximum % Proliferation (ARG2): 82%
B1: C0020065: anti-ARG2 antibody, alternate lead isolation clone, VH SEQ ID NO: 2, VL SEQ ID NO: 7 (antibody, listed as Homo sapiens, V domains shown)
VH: GVNLRESGGGVVQPGRSLRLSCAASGFTFSSYAMHWVRQAPGKGLEWVAVISYDGSNKYYVDSVKGRFTISRDNSKNTLYLQMNSLRAEDTAVYYCARDSSQLWFDYWGRGTLVTVSS
VL: QSVVTQPPSVSGAPGQRVTISCTGSSSNIGTGYDVHWYQQLPGTAPKLLIYGNSNRPSGVPDRFSGSKSGTSASLAITGLQAEDEADYYCQSYDSSLSGSVVFGGGTQLTVL
modifications: C0020065

mode of action on ARG2 (human ARG2 (trimer)): not competitive
mode of action on ARG2 (human ARG2 (trimer); listed as C0021158 fab): allosteric inhibitor
B2: C0021158 IgG: anti-ARG2 antibody, VH SEQ ID NO: 282, VL SEQ ID NO: 287; IgG and Fab versions carry these sequences (antibody, listed as Homo sapiens, V domains shown)
VH: EVQLLESGGGLVQPGGSLRLSCAASGFTFRYEVAAWVRQAPGKGLEWVSAISGPIPKGYYADSVKGRFTISRDNSKNTLYLQMNSLRAEDTAVYYCARLRADLGLYMDLWGRGTLVTVSS
VL: QSVLTQPPSVSAAPGQKVTISCSGSSSNIGNHYVSWYQQLPGTAPKLLIYDNSERTAGVPDRFSGSKSGTSATLGITGLQTGDEADYYCGTWDELTSNLVFGGGTKLTVL
modifications: C0021158 IgG
Km (human ARG2 (trimer); 10 nM C0021158 IgG): 1640 µM
Vmax (human ARG2 (trimer); 10 nM C0021158 IgG): 148.5 AU ms^−1
Vmax (human ARG2 (trimer); 30 nM C0021158 IgG): 89.23 AU ms^−1
Km (human ARG2 (trimer); 100 nM C0021158 IgG): 590 µM
Vmax (human ARG2 (trimer); 100 nM C0021158 IgG): 112.8 AU ms^−1
Vmax (human ARG2 (trimer); 1 μM C0021158 IgG): 103.4 AU ms^−1
